Where a chain is given by its changes, count along the chain named.
T1: recombinant hIL-18Rα extracellular domain (human, UniProt Q13478 22-329, biotin label (selection) or fluorescent probe (single-clone FACS), sites not given)
T1 construct: extracellular domain; also called hIL-18Rα ECD; hIL-18Rα-ECD
T1 sequence (looked up): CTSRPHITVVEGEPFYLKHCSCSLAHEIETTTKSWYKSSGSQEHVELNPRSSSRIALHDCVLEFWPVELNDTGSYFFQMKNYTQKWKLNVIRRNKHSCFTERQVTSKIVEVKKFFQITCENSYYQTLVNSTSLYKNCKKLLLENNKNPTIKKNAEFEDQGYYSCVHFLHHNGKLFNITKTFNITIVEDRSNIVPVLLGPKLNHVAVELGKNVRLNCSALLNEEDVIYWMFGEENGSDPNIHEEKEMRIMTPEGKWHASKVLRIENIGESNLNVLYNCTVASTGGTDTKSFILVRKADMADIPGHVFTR

B1: SEQ ID NO 18 (ligand)
chain: YLPKLRSKLSVIRNLNDQVLFIDQGNRPLFEDMTDSDCRDNAPRTIFIISMYKWSTSRGMAVTISVKCEKISTLSCENKIISFKEMNPPDSIKDTKSDIIFFQSSVPGHDNKMQFESSSYEGYFLACEKERDLFKLILKKEDELGDRSIMFTVQKED
B2: SEQ ID NO 32 (ligand)
chain: B1 chain with L2F, W54H, T56S, S57R, S91I, S104Y, K155N
B3: SEQ ID NO 93 (ligand)
chain: B1 chain with L2F, P3G, R6P, W54L, T56N, S57R, S91G, S104R, K155N
B4: SEQ ID NO 85 (ligand)
chain: B1 chain with L2F, R6K, T56G, S57G, S104F, K155N
B5: SEQ ID NO 19 (ligand)
chain: B1 chain with L2F, T56Y, S57P, K155N
B6: SEQ ID NO 86 (ligand)
chain: B1 chain with L2F, R6N, W54L, S57V, S91P, S104H, K155N
B7: SEQ ID NO 95 (ligand)
chain: B1 chain with L2F, P3W, R6S, W54L, S57W, S91Y, S104R, K155N
B8: SEQ ID NO 36 (ligand)
chain: B1 chain with L2F, T56R, S57P, S104Y, K155N
B9: SEQ ID NO 30 (ligand)
chain: B1 chain with L2F, R6K, W54H, T56I, S57H, S91V, S104V, K155N
B10: SEQ ID NO 57 (ligand)
chain: B1 chain with L2F, R6K, W54H, T56R, S57A, S104T, K155N
B11: SEQ ID NO 88 (ligand)
chain: B1 chain with L2F, R6S, W54H, T56S, S57R, S91V, S104A, K155N
B12: SEQ ID NO 33 (ligand)
chain: B1 chain with L2F, P3G, R6K, W54L, S57R, S91P, S104R, K155N
B13: SEQ ID NO 87 (ligand)
chain: B1 chain with L2F, R6G, W54G, T56H, S57F, S91G, K155N
B14: SEQ ID NO 24 (ligand)
chain: B1 chain with L2F, P3D, R6G, T56P, S57W, S91N, S104R, K155N
B15: SEQ ID NO 71 (ligand)
chain: B1 chain with L2F, R6Y, W54H, S57N, S91G, S104R, K155N
B16: SEQ ID NO 40 (ligand)
chain: B1 chain with L2F, R6K, W54L, T56G, S57A, S91V, S104R, K155N
B17: SEQ ID NO 78 (ligand)
chain: B1 chain with L2F, P3K, R6P, R13H, W54L, T56S, S57E, S91N, S104R, K155N
B18: SEQ ID NO 90 (ligand)
chain: B1 chain with L2F, W54S, T56L, S57K, S91T, K155N
B19: SEQ ID NO 46 (ligand)
chain: B1 chain with L2F, R6G, W54H, T56D, S57P, S91V, S104M, K155N
B20: SEQ ID NO 53 (ligand)
chain: B1 chain with L2F, W54L, T56G, S57W, S91V, S104R, K155N
B21: SEQ ID NO 79 (ligand)
chain: B1 chain with L2F, R6G, T56Q, S57P, S91V, S104Y, K155N
B22: SEQ ID NO 48 (ligand)
chain: B1 chain with L2F, P3F, R6K, W54P, T56P, S57P, S91T, S104Y, K155N
B23: SEQ ID NO 89 (ligand)
chain: B1 chain with L2F, R6A, W54H, T56S, S57K, S91V, S104V, K155N
B24: SEQ ID NO 75 (ligand)
chain: B1 chain with L2F, R6G, W54H, T56S, S57R, S91V, S104N, K155N
B25: SEQ ID NO 60 (ligand)
chain: B1 chain with L2F, R6K, W54H, T56S, S57T, S91V, S104C, K155N
B26: SEQ ID NO 64 (ligand)
chain: B1 chain with L2F, R6N, W54V, S55P, S57A, S91A, S104R, K155N
B27: SEQ ID NO 69 (ligand)
chain: B1 chain with L2F, R6V, T56A, S57I, S91V, S104T, K155N
B28: SEQ ID NO 83 (ligand)
chain: B1 chain with L2F, P3W, R6W, W54P, T56N, S57F, S91V, S104G, K155N
B29: SEQ ID NO 29 (ligand)
chain: B1 chain with L2F, R6T, W54H, T56Y, S57A, S91V, S104R, K155N
B30: SEQ ID NO 47 (ligand)
chain: B1 chain with L2F, W54L, S57V, S91G, S104H, K155N
B31: SEQ ID NO 97 (ligand)
chain: B1 chain with L2F, R6K, W54T, T56F, S57N, S91V, S104R, K155N
B32: SEQ ID NO 23 (ligand)
chain: B1 chain with L2F, R6K, W54G, T56G, S57T, S91A, S104R, K155N
B33: SEQ ID NO 61 (ligand)
chain: B1 chain with L2F, R6K, W54F, S57E, S91P, S104R, K155N
B34: SEQ ID NO 84 (ligand)
chain: B1 chain with L2F, R6K, W54M, T56S, S57A, S91G, K155N
B35: SEQ ID NO 77 (ligand)
chain: B1 chain with L2F, W54H, T56Y, S57T, S91I, S104Y, K155N
B36: SEQ ID NO 92 (ligand)
chain: B1 chain with L2F, P3W, R6S, W54Q, T56L, S57R, S91R, S104A, K155N
B37: SEQ ID NO 37 (ligand)
chain: B1 chain with L2F, W54G, T56G, S57I, S91G, S104R, K155N
B38: SEQ ID NO 63 (ligand)
chain: B1 chain with L2F, R6Q, W54L, S57P, S91A, S104R, K155N
B39: SEQ ID NO 70 (ligand)
chain: B1 chain with L2F, T56G, S57G, S91A, S104L, K155N
B40: SEQ ID NO 68 (ligand)
chain: B1 chain with L2F, R6K, T56P, S57W, S91N, S104T, K155N
B41: SEQ ID NO 80 (ligand)
chain: B1 chain with L2F, T56Y, S57P, S91G, S104F, K155N
B42: SEQ ID NO 51 (ligand)
chain: B1 chain with L2F, T56A, S57V, K155N
B43: SEQ ID NO 82 (ligand)
chain: B1 chain with L2F, W54L, S57I, S91Y, S104R, K155N
B44: SEQ ID NO 31 (ligand)
chain: B1 chain with L2F, R6K, T56A, S57R, S91P, K155N
B45: SEQ ID NO 96 (ligand)
chain: B1 chain with L2F, R6H, W54R, S57L, S91G, S104R, K155N
B46: SEQ ID NO 67 (ligand)
chain: B1 chain with L2F, P3T, W54L, T56H, S57L, M60I, S91A, K155N
B47: SEQ ID NO 34 (ligand)
chain: B1 chain with L2F, R6K, W54Q, S57W, S91C, S104R, K155N
B48: SEQ ID NO 20 (ligand)
chain: B1 chain with L2F, R6K, W54F, S57V, S91G, S104H, K155N
B49: SEQ ID NO 42 (ligand)
chain: B1 chain with L2F, P3E, T56P, S57D, S91V, S104V, K155N
B50: SEQ ID NO 52 (ligand)
chain: B1 chain with L2F, P3W, R6K, W54P, T56S, S57H, S91V, S104L, K155N
B51: SEQ ID NO 76 (ligand)
chain: B1 chain with L2F, R6K, T56W, S57A, S91L, S104Y, K155N
B52: SEQ ID NO 45 (ligand)
chain: B1 chain with L2F, W54H, T56Y, S57G, S91A, S104T, K155N
B53: SEQ ID NO 25 (ligand)
chain: B1 chain with L2F, R6K, W54L, T56G, S57V, S91T, S104R, K155N

Biological target: T1, recombinant hIL-18Rα extracellular …
Experiment: single-clone FACS, yeast display, 10 nM labelled hIL-18Rα ECD
Method: Following the screens described in Example 2, single clone FACS analysis was performed to verify the binding of selected yeast cell surface-expressed IL-18 variant polypeptides from Round 4 and Round 5 to 10 nM hIL-18Rα-ECD. Briefly, each yeast clone at the same density was incubated with 10 nM IL-18Rα-ECD labeled by fluorescent probe, respectively, followed by washing step. Then the ratio of fluorescent positive IL-18Rα ECD binding yeasts in the population of each clone were analyzed.

| % of fluorescence positive cells [%] | Binder |
| --- | --- |
| 92 | B1 |
| 88.9 | B2 |
| 4.48 | B3 |
| 10.8 | B4 |
| 97.9 | B5 |
| 9.28 | B6 |
| 3.45 | B7 |
| 88.5 | B8 |
| 89.7 | B9 |
| 79 | B10 |
| 5.45 | B11 |
| 88.8 | B12 |
| 6.12 | B13 |
| 90.1 | B14 |
| 45.1 | B15 |
| 87.9 | B16 |
| 27.8 | B17 |
| 5.15 | B18 |
| 84.9 | B19 |
| 82.4 | B20 |
| 21.5 | B21 |
| 83.8 | B22 |
| 5.27 | B23 |
| 30 | B24 |
| 76.5 | B25 |
| 70.8 | B26 |
| 60.9 | B27 |

| % of fluorescence positive cells [%] | Binder |
| --- | --- |
| 13.5 | B28 |
| 89.7 | B29 |
| 84.7 | B30 |
| 2.66 | B31 |
| 90.8 | B32 |
| 76.1 | B33 |
| 11.5 | B34 |
| 28.4 | B35 |
| 4.48 | B36 |
| 88.4 | B37 |
| 72.6 | B38 |
| 51.3 | B39 |
| 60.9 | B40 |
| 18.6 | B41 |
| 83.1 | B42 |
| 14.5 | B43 |
| 89.5 | B44 |
| 2.79 | B45 |
| 66.4 | B46 |
| 88.6 | B47 |
| 91.7 | B48 |
| 87.2 | B49 |
| 83 | B50 |
| 29.7 | B51 |
| 86.1 | B52 |
| 90 | B53 |

Source: patent publication US20260092093A1 (TJ BIOPHARMA SHANGHAI, published 2026)
